Laboratory results reported in patent publication EP3919091A1.

Target: PIF6-SnoopCatcher (SnoopCatcher-mCherry-PIF6(A. thaliana, amino acids: 1-100, Cys9Ser, Cys10Ser)-His6), coupled to 8-arm PEG-SnoopTag (A. thaliana) (UniProt Q8L5W7)
Experiment: cell-based or functional assay

Chain of UniProt Q8L5W7 (Q8L5W7 other isoform, or with tags, fused parts or gaps C10S C10S): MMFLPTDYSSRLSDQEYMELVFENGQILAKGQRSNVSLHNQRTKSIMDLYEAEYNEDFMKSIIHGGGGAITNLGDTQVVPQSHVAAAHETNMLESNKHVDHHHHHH

For “PhyB-SpyCatcher (PhyB(A. thaliana, amino acids: 1-651)-SpyCatcher-His6), coupled to 8-arm PEG-SpyTag (from UniProt P14713 1-651)”, the reversible cross-linking and dissolution cycles (small amplitude oscillatory shear rheology, 660 nm / 740 nm) was 5 times.
